Experimental data as given in patent publication US20040258656, “High affinity TGFbeta nucleic acid ligands and inhibitors” (published 2004).

T1: TGFβ2 (transforming growth factor beta 2) (Homo sapiens, UniProt P61812 SEQ:1-112)
T1 sequence: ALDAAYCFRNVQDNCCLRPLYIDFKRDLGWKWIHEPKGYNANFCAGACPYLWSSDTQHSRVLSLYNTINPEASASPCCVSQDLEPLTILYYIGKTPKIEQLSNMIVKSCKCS

B1: NX22427 (ssRNA)
RNA: GGGGUUAUUACAGAGUCUGUAUAGCUGUACCC
modifications: 2'-F C and U; 2'-OMe at lowercase a,g of gg-ggUUAUUaCagagUCUGUAUAgCUgUaC-CC; 3'-3' dT
B2: NX22426 (ssRNA)
RNA: GGAGAUAUUACAGAGUCUGUAUAGCUGUACUCC
modifications: 2'-F C and U; 2'-OMe at lowercase a,g of ggaga-UAUUaCagagUCUgUAUAgCUgUaCucc with G of CUGUAUA 2'-OH; 3'-3' dT
B3: NX22356 (ssRNA)
RNA: GGAGGUUAUUACAGAGUCUGUAUAGCUGUACUCC
modifications: 2'-F C and U; 2'-OMe at lowercase a,g of ggagGUUAUUACAGAGUCUGUAUAGCuGUACUCC; 3'-3' dT
B4: NX22358 (ssRNA)
RNA: B3 RNA
modifications: 2'-F C and U; 2'-OMe at lowercase a,g of GGAGGUUAUUACagagUCUGUAUAGCUGUACUCC; 3'-3' dT
B5: NX22421 (ssRNA)
RNA: B3 RNA
modifications: 2'-F C and U; 2'-OMe at all purines except G5, A8, A11, G20, A22, A24; 3'-3' dT
B6: NX22420 (ssRNA)
RNA: B3 RNA
modifications: 2'-F C and U; 2'-OMe at all purines except A8, G20, A22, A24; 3'-3' dT
B7: NX22360 (ssRNA)
RNA: B3 RNA
modifications: 2'-F C and U; 2'-OMe at lowercase a,g of GGAGGUUAUUACAGAGUCUGUAUAgCUgUaCUCC; 3'-3' dT
B8: NX22357 (ssRNA)
RNA: B3 RNA
modifications: 2'-F C and U; 2'-OMe at lowercase a,g of GGAGgUUaUUaCAGAGUCUGUAUAGCUGUACUCC; 3'-3' dT
B9: NX22417 (ssRNA)
RNA: B3 RNA
modifications: 2'-F C and U; 2'-OMe at all purines except G20, A22, A24; 3'-3' dT
B10: NX22377 (ssRNA)
RNA: B3 RNA
modifications: 2'-F C and U; 2'-OMe at lowercase a,g of ggaggUUaUUaCAGAGUCUGUAUAgCUgUaCucc; 3'-3' dT
B11: 21a-4(ML-111) (ssRNA)
RNA: GGGGAGCGGCGUUGUUUAGUCGUAUGUAUAUACUAAGU
modifications: 2'-F C and U
B12: 21a-4(ML-92) (ssRNA)
RNA: GGGGAGCGGCGUUGUUGAAAAGUCCGCUU
modifications: 2'-F C and U
B13: 21a-4(ML-91) (ssRNA)
RNA: GGGGAGCGGCGUUGUUUAGUCGUAUGUAUAUACUAAGUCCGCUU
modifications: 2'-F C and U
B14: 21a-4(ML-110) (ssRNA)
RNA: GGGGAGCGGCGUUGUUUAGUCGUAUGUAUAUACUAAGUCCGC
modifications: 2'-F C and U
B15: 21a-4Δ5',3' (ssRNA)
RNA: GGCGUUGUUUAGUCGUAUGUAUAUACUAAGUCCGCUUGUCCCCA
modifications: 2'-F C and U
B16: 21a-4(ML-108) (ssRNA)
RNA: GGGGAGCGGCGUUGUUUCGUAUGUAUAUAAGUCCGCUU
modifications: 2'-F C and U
B17: 21a-4(ML-109) (ssRNA)
RNA: GGGGAGCGGCGUUGUUUAUGUAUAAGUCCGCUU
modifications: 2'-F C and U
B18: CD70 (ChD70) (ssRNA)
RNA: GGGUGCCUUUUGCCUAGGUUGUGAUUUGUAACCUUCUGCCCA
modifications: 2'-F pyrimidines (library chemistry)
B19: ChD70-m17 (ssRNA)
RNA: B18 RNA
modifications: 2'-OMe purines at 1-3, 16-18, 21, 23-24, 28, 30-31 and 42; 3'-3' U
B20: NX22385 (ssRNA)
RNA: UGUGAAUAUUAGAGAGUCUGUAUAGCUCUACCCC
modifications: 2'-F C and U; 3'-3' dT
B21: NX22425 (ssRNA)
RNA: B20 RNA
modifications: 2'-F C and U; 2'-OMe at lowercase a,g of UgUgaaUAUUagagagUCUGUAUAgCUCUaCCCC; 3'-3' dT
B22: NX22424 (ssRNA)
RNA: B20 RNA
modifications: 2'-F C and U; 2'-OMe at lowercase a,g of UgUgAAUAUUaGagagUCUGUAUAgCUCUaCCCC; 3'-3' dT
B23: 14i-1(ML-87) (ssRNA)
RNA: GGGAGGAUGCGGAAGUAACGUUGUAGU
modifications: 2'-F C and U
B24: 14i-1t5-35 (ssRNA)
RNA: GGGAGGAUGCGGAAGUAACGUUGUAGUAAAAU
modifications: 2'-F C and U
B25: 14i-1Δ5',3' (ssRNA)
RNA: GGAAGUAACGUUGUAGUAAAAUUCGUUCUCUCGGCAUUUGGCCA
modifications: 2'-F C and U
B26: 14i-1(ML-89) (ssRNA)
RNA: GGGAGGAGUAACGUUGUAGU
modifications: 2'-F C and U
B27: 14i-1t5-38 (ssRNA)
RNA: GGGAGGAUGCGGAAGUAACGUUGUAGUAAAAUUCC
modifications: 2'-F C and U
B28: 14i-1t5-41 (ssRNA)
RNA: GGGAGGAUGCGGAAGUAACGUUGUAGUAAAAUUCCUUC
modifications: 2'-F C and U
B29: 14i-1(ML-86) (ssRNA)
RNA: GGGAGGAUGCGGAAGUAACGUUGUAGUUCCUUC
modifications: 2'-F C and U
B30: ChD70-m5 (ssRNA)
RNA: B18 RNA
modifications: 2'-OMe at 1, 21, 23-24, 28
B31: ChD70-m6 (ssRNA)
RNA: B18 RNA
modifications: 2'-OMe at 2, 21, 23-24, 28
B32: ChD70-m14 (ssRNA)
RNA: B18 RNA
modifications: 2'-OMe at 21, 23-24, 28, 31
B33: ChD70-m10 (ssRNA)
RNA: B18 RNA
modifications: 2'-OMe at 16, 21, 23-24, 28
B34: ChD70-m16 (ssRNA)
RNA: B18 RNA
modifications: 2'-OMe at 21, 23-24, 28, 42
B35: ChD70-m12 (ssRNA)
RNA: B18 RNA
modifications: 2'-OMe at 18, 21, 23-24, 28
B36: ChD70-m18 (ssRNA)
RNA: B18 RNA
modifications: 2'-OMe at 1-3, 16-18, 21, 23-24, 28, 30, 42; 3'-3' U cap
B37: ChD70-m3 (ssRNA)
RNA: B18 RNA
modifications: 2'-OMe at 21, 23-24, 28
B38: ChD70-m7 (ssRNA)
RNA: B18 RNA
modifications: 2'-OMe at 3, 21, 23-24, 28
B39: ChD70-m11 (ssRNA)
RNA: B18 RNA
modifications: 2'-OMe at 17, 21, 23-24, 28
B40: ChD70-m15 (ssRNA)
RNA: B18 RNA
modifications: 2'-OMe at 21, 23-24, 28, 38
B41: 8.40 (ssRNA)
RNA: GGGAGGACGAUGCGGCCCAUUAGUCCUCAUUAGUCCCCUGUGCCCCAGACGACUCGCCCGA
modifications: 2'-F C and U; 2'-OH A and G
B42: 8.48 (ssRNA)
RNA: GGGAGGACGAUGCGGAAGUAACGUUGAAGUAAAAUUCGUUCUCUCGGUAUUGGCCAGACGACUCGCCCGA
modifications: 2'-F C and U; 2'-OH A and G
B43: 8.12 (ssRNA)
RNA: GGGAGGACGAUGCGGUCCAUCAACAAUCUUAUCAUUAUGUUUUUCCUUCCCGCCCCAGACGACUCGCCCGA
modifications: 2'-F C and U; 2'-OH A and G
B44: 8.5 (ssRNA)
RNA: GGGAGGACGAUGCGGUCCUAACCAUCACAAUCUCAAUUCUUAUAUUUUCCCGCCCCAGACGACUCGCCCGA
modifications: 2'-F C and U; 2'-OH A and G
B45: 8.9 (ssRNA)
RNA: GGGAGGACGAUGCGGAAGUAACGUUGAAGUAAAAUUCGUUCUCUCGGUAUUUGGCCAGACGACUCGCCCGA
modifications: 2'-F C and U; 2'-OH A and G
B46: 8.6 (ssRNA)
RNA: GGGAGGACGAUGCGGAAACCAAAAGACCACAUCUCCAUACUCACGCUCUGCCCCAGACGACUCGCCCGA
modifications: 2'-F C and U; 2'-OH A and G
B47: 8.18 (ssRNA)
RNA: GGGAGGACGAUGCGGUCUACCCUUUAGCAGUAUUUGUUUCCAUCGUUGUUUGCCCCAGACGACUCGCCCGG
modifications: 2'-F C and U; 2'-OH A and G
B48: 8.8 (ssRNA)
RNA: GGGAGGACGAUGCGGAUAGAUCGGUCCGAUAAGUCUUUCAUCUUUACCUGGCCCCCAGACGACUCGCCCGA
modifications: 2'-F C and U; 2'-OH A and G
B49: 8.35 (ssRNA)
RNA: GGGAGGACGAUGCGGAUCCUAUCCUCUGAAUAUCAUUAAAUCAUCUUCUCCGCCCCAGACGACUCGCCCGA
modifications: 2'-F C and U; 2'-OH A and G
B50: 8.20 (ssRNA)
RNA: GGGAGGACGAUGCGGUCUCAACGAAGAACAUCGUUGGAUACUGUUUGUCCCGCCCCAGACGACUCGCCCGA
modifications: 2'-F C and U; 2'-OH A and G

What follows are binders tested against T1, TGFβ2 (transforming growth factor beta …) (assay: filter). Conditions: chain copies: 2 (inferred, homodimer).

How did the binding signal turn out when B1 was run?
Its binding signal is 0.3 x Kd of NX22284.

How did the binding signal turn out when B2 was run?
Its binding signal is 1 x Kd of NX22284.

B3 was tested. Which binding signal did it give?
The binding signal was 1 x Kd of NX22284.

With B4 as the binder, how does the binding signal read?
The binding signal was 1 x Kd of NX22284.

With B5 as the binder, how does the binding signal read?
Its binding signal is 2 x Kd of NX22284.

For B6, which binding signal is on record?
Its binding signal is 1 x Kd of NX22284.

Which binding signal does the source give for B7 here?
Its binding signal is 1 x Kd of NX22284.

How did the binding signal turn out when B8 was run?
Its binding signal is 2 x Kd of NX22284.

B9 was tested. Which binding signal did it give?
The binding signal was 1 x Kd of NX22284.

How did the binding signal turn out when B10 was run?
Its binding signal is 1 x Kd of NX22284.

Target: T1, TGFβ2 (transforming growth factor beta …)
Test: filter
Conditions: chain copies: 2 (inferred, homodimer)
Remark: another data set of the same source

B11 was tested. Which binding signal did it give?
Its binding signal is 30 x Kd of 21a-4.

With B12 as the binder, how does the binding signal read?
Its binding signal is > 100 x Kd of 21a-4.

With B13 as the binder, how does the binding signal read?
Its binding signal is 1 x Kd of 21a-4.

How did the binding signal turn out when B14 was run?
The binding signal was 1 x Kd of 21a-4.

How did the binding signal turn out when B15 was run?
The binding signal was > 100 x Kd of 21a-4.

For B16, which binding signal is on record?
Its binding signal is > 100 x Kd of 21a-4.

Which binding signal does the source give for B17 here?
Its binding signal is > 100 x Kd of 21a-4.

Each binder was assayed against T2, TGFβ1 (transforming growth factor beta 1) (Homo sapiens, UniProt P01137 SEQ:1-112) (assay: bioactivity +++). Conditions: chain copies: 2 (inferred, homodimer).
T2 sequence (P01137 279-390): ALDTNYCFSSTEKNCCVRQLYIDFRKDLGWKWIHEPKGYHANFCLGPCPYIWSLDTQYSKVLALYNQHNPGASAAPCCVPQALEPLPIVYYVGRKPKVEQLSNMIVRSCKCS

Does B18 bind?
Result: binds

Does B19 bind?
Result: binds

Target: T1, TGFβ2 (transforming growth factor beta …)
Test: filter
Conditions: chain copies: 2 (inferred, homodimer)
Remark: another data set of the same source

Which binding signal does the source give for B20 here?
The binding signal was 0.4 x Kd of NX22284.

For B21, which binding signal is on record?
Its binding signal is 1.5 x Kd of NX22284.

With B22 as the binder, how does the binding signal read?
The binding signal was 0.6 x Kd of NX22284.

Target: T1, TGFβ2 (transforming growth factor beta …)
Test: filter
Conditions: chain copies: 2 (inferred, homodimer)
Remark: another data set of the same source

How did the binding signal turn out when B23 was run?
Its binding signal is > 100 x Kd of 14i-1.

For B24, which binding signal is on record?
Its binding signal is > 100 x Kd of 14i-1.

B25 was tested. Which binding signal did it give?
The binding signal was > 100 x Kd of 14i-1.

With B26 as the binder, how does the binding signal read?
Its binding signal is > 100 x Kd of 14i-1.

For B27, which binding signal is on record?
The binding signal was > 100 x Kd of 14i-1.

Which binding signal does the source give for B28 here?
Its binding signal is 1 x Kd of 14i-1.

How did the binding signal turn out when B29 was run?
Its binding signal is > 100 x Kd of 14i-1.

What follows are binders tested against T2, TGFβ1 (transforming growth factor beta …) (assay: CD70 parent +++). Conditions: chain copies: 2 (homodimer, inferred).

Does B30 bind?
Result: binds

Does B31 bind?
Result: binds

Does B32 bind?
Result: binds

Does B33 bind?
Result: binds

Does B34 bind?
Result: binds

Does B35 bind?
Result: binds

Does B36 bind?
Result: binds

Does B37 bind?
Result: binds

Does B38 bind?
Result: binds

Does B39 bind?
Result: binds

Does B40 bind?
Result: binds

Each binder was assayed against T1, TGFβ2 (transforming growth factor beta …) (assay: filter). Conditions: chain copies: 2 (homodimer, stated).

Does B41 bind?
Result: no binding

Does B42 bind?
Result: binds

Does B43 bind?
Result: no binding

Does B44 bind?
Result: no binding

Does B45 bind?
Result: binds

Does B46 bind?
Result: no binding

Does B47 bind?
Result: no binding

Does B48 bind?
Result: no binding

Does B49 bind?
Result: no binding

Does B50 bind?
Result: no binding
